The source of these data is IntAct's records for PubMed 15509585.

B1: Thioredoxin-like protein slr1139 (Synechocystis sp. (strain PCC 6803 / Kazusa)), P73263 (parent)
chain: MSLLEITDAEFEQETQGQTKPVLVYFWASWCGPCRLMAPAIQAIAKDYGDKLKVLKLEVDPNPAAVAQCKVEGVPALRLFKNNELVMTHEGAIAKPKLLELLKEELDFI
partner: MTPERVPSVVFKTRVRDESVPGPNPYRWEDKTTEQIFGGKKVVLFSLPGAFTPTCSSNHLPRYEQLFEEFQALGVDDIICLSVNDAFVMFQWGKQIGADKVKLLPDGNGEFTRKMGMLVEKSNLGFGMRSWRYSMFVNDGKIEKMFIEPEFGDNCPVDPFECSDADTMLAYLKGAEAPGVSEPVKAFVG
B2: Thioredoxin-like protein slr1139 (Synechocystis sp. (strain PCC 6803 / Kazusa)), P73263 (parent)
chain: B1 chain
partner: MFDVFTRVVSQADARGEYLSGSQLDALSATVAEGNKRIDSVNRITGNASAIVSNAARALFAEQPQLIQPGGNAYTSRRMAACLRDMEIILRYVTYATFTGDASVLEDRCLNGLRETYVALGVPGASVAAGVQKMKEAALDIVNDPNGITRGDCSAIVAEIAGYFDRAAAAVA
B3: Thioredoxin-like protein slr1139 (Synechocystis sp. (strain PCC 6803 / Kazusa)), P73263 (parent)
chain: B1 chain
partner: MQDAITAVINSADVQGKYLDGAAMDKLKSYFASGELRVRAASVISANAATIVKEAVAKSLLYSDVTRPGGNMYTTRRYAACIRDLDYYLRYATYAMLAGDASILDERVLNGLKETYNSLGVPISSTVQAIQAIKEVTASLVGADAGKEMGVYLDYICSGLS

One assay covers variants of B1. Conditions: with prx5_syny3 prx5, P73728.
In the case of MSLLEITDAEFEQETQGQTKPVLVYFWASWCGPSRLMAPAIQAIAKDYGDKLKVLKLEVDPNPAAVAQCKVEGVPALRLFKNNELVMTHEGAIAKPKLLELLKEELDFI [C34S], the “effect of a mutation on the interaction” value is listed as “increasing interaction”.

Variants of B2 are the subject of another assay. Particulars: with phcb_syny3 cpcB.
MSLLEITDAEFEQETQGQTKPVLVYFWASWCGPSRLMAPAIQAIAKDYGDKLKVLKLEVDPNPAAVAQCKVEGVPALRLFKNNELVMTHEGAIAKPKLLELLKEELDFI [C34S]: the “effect of a mutation on the interaction” value is “increasing interaction”.

Another assay covers variants of B3. Conditions: with apcb_syny3 apcB.
Consider MSLLEITDAEFEQETQGQTKPVLVYFWASWCGPSRLMAPAIQAIAKDYGDKLKVLKLEVDPNPAAVAQCKVEGVPALRLFKNNELVMTHEGAIAKPKLLELLKEELDFI [C34S], for which the “effect of a mutation on the interaction” value was “increasing interaction”.
